Data on one molecule can be found in paper PMC5007465, “Cullin3-KLHL15 ubiquitin ligase mediates CtIP protein turnover to fine-tune DNA-end resection” (Nature Communications, 2016).

For this experiment, the target named is T1, MBP-KLHL15-His (human, UniProt Q96M94 1-604).
T1 construct: KLHL15, human; gene amplified from the pCMV6-KLHL15 vector and subcloned into the pFB-MBP-fusion plasmid; In the pull-downs MBP was kept (coupled to amylose beads); MBP was cleaved only for the protein purified further; also called recombinant MBP-KLHL15; recombinant KLHL15 purified from insect cells; not shown: MBP, N-terminal, kept
T1 sequence (looked up): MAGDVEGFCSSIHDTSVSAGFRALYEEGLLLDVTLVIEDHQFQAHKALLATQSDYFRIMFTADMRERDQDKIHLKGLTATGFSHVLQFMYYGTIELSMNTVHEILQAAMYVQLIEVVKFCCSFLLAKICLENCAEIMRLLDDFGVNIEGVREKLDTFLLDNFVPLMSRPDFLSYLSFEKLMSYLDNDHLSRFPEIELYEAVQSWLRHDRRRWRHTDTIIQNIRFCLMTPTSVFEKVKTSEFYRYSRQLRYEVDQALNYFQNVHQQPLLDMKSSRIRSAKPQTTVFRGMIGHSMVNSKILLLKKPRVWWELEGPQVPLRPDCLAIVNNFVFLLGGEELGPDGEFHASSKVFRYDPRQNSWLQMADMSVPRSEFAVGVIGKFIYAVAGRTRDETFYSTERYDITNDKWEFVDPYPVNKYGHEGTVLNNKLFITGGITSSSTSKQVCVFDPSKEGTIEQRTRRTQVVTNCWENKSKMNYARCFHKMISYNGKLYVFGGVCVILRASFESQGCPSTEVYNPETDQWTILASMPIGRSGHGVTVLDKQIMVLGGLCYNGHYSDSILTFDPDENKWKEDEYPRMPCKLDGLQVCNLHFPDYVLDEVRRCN
The experiment in a line: pull-down; competition: CtIP 15-mer peptide added in the indicated amounts to MBP-KLHL15 on amylose beads with HEK293T lysate. The settings on record: both partners purified.

Where no end group is shown, it is not given here.

B1: biotinylated 15-mer peptide encompassing CtIP amino acid residues 830–844 (peptide, UniProt Q99708 830-844, looked up)
peptide: KKLASCSRHRFRYIP
modifications: also: biotinylated (position not given here)
notes: CtIP, human, residues 830-844 in the CTD; also called CtIP peptide; CtIP 15-mer peptide; source: synthetic peptide, bought: Bachem AG
With B1, the binding result was “binds”.
